Assay results: patent US20040127419A1 (Amgen, published 2004)

Target: T1, mature human glial cell line-derived neurotrophic factor (hGDNF), CHO cell-expressed (human, UniProt P39905 78-211, glycosylated (N-linked sugar, about 4.5 kDa))
T1 construct: The native protein is a disulfide-bonded homodimer (44 kDa on non-reducing gels); also called mature GDNF; 22 kDa band
T1 chain: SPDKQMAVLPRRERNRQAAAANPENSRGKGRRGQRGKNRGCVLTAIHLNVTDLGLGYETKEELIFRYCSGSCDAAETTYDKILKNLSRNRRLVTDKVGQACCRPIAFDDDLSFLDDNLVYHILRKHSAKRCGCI
Test: purification from CHO conditioned medium, Western blot and N-terminal sequencing; disulfide-bonded dimer
Procedure: The following process describes the purification of CHO-expressed GDNF and a CHO-derived clipped GDNF homodimer, from one liter of conditioned media. Because of significant protease action in the CHO medium, clipping the chain at residue 31, the procedure may include the use of a protease inhibitor during purification.
Serum free conditioned media was made 20 mM 2-[N-Morpholino] ethane sulfonate (MES), pH 6.0, by adding one fiftieth volume of 1 M MES, pH 6.0. Twenty five milliliters of SP Sepharose Big Bead resin (Pharmacia), equilibrated with 20 mM MES, pH 6.0, was added and stirred at 4° C. for one hour. The resin was collected by allowing it to settle and decanting off the conditioned media. The decanted media was filtered through a fritted disc filter to recover any unsettled resin. […] Protein was eluted with a 300 ml gradient from A buffer to 1.0 M NaCl, 20 mM MES, pH 6.0 (B buffer), at a flow rate of 0.2 column volumes/minute with absorbance monitored at 280 nm. […] The presence of GDNF in the fractions was detected by Western blotting analysis. […]
Fractions containing GDNF from Step 2 were resolublized in one milliliter of 0.15 M NaCl, 10 mM Tris, pH 8.0, and applied to a 0.75×7.5 cm TSK-Gel 5WP high performance S column (Toso Haas). […] One minute fractions were collected with absorbance measured at 280 nm. […]

binding result: binds
B1: [Arg32-Ile134] truncated GDNF protein, CHO cell-derived (ligand)
chain: RGQRGKNRGCVLTAIHLNVTDLGLGYETKEELIFRYCSGSCDAAETTYDKILKNLSRNRRLVTDKVGQACCRPIAFDDDLSFLDDNLVYHILRKHSAKRCGCI
modifications: glycosylated (N-linked and O-linked sugars)
notes: It forms a disulfide-bonded homodimer (36 kDa) or a heterodimer with mature GDNF (40 kDa); A later purification also found a [Lys37-Ile134] form; also called clipped GDNF; 18 kDa band
